Results: patent publication US6617427 (THOMAS JEFFERSON UNIVERSITY, dated 2003)

T1: LexA-hairy (UniProt P14003 1-337, limits assumed)
T1 construct: not shown: LexA, fusion partner
T1 sequence (looked up): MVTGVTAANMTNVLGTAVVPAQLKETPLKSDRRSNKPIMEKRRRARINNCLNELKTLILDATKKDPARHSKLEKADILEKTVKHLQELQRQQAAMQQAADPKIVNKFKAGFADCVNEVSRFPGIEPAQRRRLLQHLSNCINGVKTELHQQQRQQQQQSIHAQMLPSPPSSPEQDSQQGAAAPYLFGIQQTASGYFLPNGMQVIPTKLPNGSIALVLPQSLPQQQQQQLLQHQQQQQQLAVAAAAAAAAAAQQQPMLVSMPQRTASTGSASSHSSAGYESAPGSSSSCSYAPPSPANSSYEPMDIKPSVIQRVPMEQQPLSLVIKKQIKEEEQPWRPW

T2: LexA-daughterless (UniProt P11420 1-710, limits assumed)
T2 construct: not shown: LexA, fusion partner
T2 sequence (looked up): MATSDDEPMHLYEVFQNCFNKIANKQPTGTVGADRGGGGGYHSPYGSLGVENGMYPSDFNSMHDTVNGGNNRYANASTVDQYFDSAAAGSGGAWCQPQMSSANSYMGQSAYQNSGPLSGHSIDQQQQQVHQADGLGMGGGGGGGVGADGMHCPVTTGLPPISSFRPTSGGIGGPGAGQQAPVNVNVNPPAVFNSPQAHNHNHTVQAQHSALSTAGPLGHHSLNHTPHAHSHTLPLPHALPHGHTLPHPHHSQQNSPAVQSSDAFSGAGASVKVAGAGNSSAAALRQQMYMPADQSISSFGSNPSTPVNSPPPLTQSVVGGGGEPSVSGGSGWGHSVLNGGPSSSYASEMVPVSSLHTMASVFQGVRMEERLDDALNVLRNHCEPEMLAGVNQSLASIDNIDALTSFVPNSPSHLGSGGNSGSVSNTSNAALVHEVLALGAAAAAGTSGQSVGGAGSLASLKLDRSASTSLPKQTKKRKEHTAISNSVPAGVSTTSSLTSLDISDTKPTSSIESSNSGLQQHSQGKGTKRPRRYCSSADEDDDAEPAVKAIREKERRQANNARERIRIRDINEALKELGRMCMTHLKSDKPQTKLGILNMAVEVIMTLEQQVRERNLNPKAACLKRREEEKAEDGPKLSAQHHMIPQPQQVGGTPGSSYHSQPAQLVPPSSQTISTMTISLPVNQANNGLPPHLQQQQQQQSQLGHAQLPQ

T3: LexA-ftz (UniProt P02835 1-410, limits assumed)
T3 construct: not shown: LexA, fusion partner
T3 sequence (looked up): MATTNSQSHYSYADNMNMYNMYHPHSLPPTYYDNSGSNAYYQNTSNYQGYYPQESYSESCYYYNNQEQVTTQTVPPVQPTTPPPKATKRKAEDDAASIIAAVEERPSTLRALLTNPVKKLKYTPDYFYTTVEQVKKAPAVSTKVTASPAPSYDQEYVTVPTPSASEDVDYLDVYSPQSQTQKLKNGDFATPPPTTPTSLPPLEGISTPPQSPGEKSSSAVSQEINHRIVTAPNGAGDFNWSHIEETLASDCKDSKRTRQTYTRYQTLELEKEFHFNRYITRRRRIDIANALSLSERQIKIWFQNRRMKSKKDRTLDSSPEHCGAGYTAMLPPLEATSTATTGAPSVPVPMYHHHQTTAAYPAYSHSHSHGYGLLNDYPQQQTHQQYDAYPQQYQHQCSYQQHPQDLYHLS

T4: LexA-CLN3 (UniProt P13365 1-580, limits assumed)
T4 construct: not shown: LexA, fusion partner
T4 sequence (looked up): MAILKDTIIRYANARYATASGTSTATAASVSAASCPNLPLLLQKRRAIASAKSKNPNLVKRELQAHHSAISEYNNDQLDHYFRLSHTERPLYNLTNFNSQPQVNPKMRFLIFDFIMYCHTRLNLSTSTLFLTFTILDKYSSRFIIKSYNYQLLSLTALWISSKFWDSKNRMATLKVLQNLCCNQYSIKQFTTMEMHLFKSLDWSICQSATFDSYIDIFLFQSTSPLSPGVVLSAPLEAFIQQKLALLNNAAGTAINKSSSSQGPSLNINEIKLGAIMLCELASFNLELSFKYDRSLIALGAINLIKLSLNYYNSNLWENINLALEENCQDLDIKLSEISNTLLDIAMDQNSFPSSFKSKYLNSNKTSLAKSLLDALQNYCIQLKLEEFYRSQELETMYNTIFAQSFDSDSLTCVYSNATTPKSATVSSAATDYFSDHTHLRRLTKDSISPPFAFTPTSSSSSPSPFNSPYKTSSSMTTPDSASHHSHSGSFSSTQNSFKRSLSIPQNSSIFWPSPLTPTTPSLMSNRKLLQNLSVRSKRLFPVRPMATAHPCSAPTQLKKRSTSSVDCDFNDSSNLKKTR

B1: B42-Tvl-1 fusion (Tvl-1 a.a. 81-269 fused to the activation domain B42) (other, not shown: large carriers)
chain: VSALPATLDSLSIHQLAAQGELSQLKDHLRKGACPACTCLSGNNLINKPDERGFTPLIWASAFGEIETVRFLLDWGADPHILAKERESALSLASMGGYTDIVRLLLDRDVDINIYDWNGGTPLLYAVRGNHVKCVEALLARGADLTTEADSGYTPMDLAVALGYRKVQQVMESHILRLFQSTLGPVDPE
notes: Yeast two-hybrid prey; also called acid blob-Tvl-1
B2: LexA-bicoid (other, UniProt P09081 2-160, looked up)
chain: AQPPPDQNFYHHPLPHTHTHPHPHSHPHPHSHPHPHHQHPQLQLPPQFRNPFDLLFDERTGAINYNYIRPYLPNQMPKPDVFPSEELPDSLVMRRPRRTRTTFTSSQIAELEQHFLQGRYLTAPRLADLSAKLALGTAQVKIWFKNRRRRHKIQSDQHK
notes: not shown: LexA, fusion partner
B3: Tvl-1 N-terminal portion (a.a. 1-96) (other)
chain: MEPTQVAENLVPNQQPPVPDLEDPEDTRDESPENSDTVVLSLFPCTPDAVNPEADASASSLQGSFLKHSTTLTNRQRGNEVSALPATLDSLSIHQL

Tests used:
[1] = target: T1, LexA-hairy; assay: yeast interaction mating, B42 Tvl-1 against LexA fusion (data not shown)
[2] = target: T5, LexA-DMcdc2 (UniProt P23572 1-297); assay: as above
T5 construct: not shown: LexA, fusion partner

[3] = target: T6, LexA-SSN6 (UniProt P14922 1-966, limits assumed); assay: as above
T6 construct: not shown: LexA, fusion partner

[4] = target: T2, LexA-daughterless; assay: as above
[5] = target: T3, LexA-ftz; assay: as above
[6] = target: T4, LexA-CLN3; assay: as above
[7] = target: B1; assay: as above
[8] = target: T7, LexA-Raf-1 (human, UniProt P0A7C2 1-202; P04049 1-648, limits assumed); assay: yeast two-hybrid (data not shown)
T7 construct: Yeast two-hybrid bait; also called LexA fusion of Raf-1 (#1)

T6 sequence (P14922 whole entry, the tested form may be a part): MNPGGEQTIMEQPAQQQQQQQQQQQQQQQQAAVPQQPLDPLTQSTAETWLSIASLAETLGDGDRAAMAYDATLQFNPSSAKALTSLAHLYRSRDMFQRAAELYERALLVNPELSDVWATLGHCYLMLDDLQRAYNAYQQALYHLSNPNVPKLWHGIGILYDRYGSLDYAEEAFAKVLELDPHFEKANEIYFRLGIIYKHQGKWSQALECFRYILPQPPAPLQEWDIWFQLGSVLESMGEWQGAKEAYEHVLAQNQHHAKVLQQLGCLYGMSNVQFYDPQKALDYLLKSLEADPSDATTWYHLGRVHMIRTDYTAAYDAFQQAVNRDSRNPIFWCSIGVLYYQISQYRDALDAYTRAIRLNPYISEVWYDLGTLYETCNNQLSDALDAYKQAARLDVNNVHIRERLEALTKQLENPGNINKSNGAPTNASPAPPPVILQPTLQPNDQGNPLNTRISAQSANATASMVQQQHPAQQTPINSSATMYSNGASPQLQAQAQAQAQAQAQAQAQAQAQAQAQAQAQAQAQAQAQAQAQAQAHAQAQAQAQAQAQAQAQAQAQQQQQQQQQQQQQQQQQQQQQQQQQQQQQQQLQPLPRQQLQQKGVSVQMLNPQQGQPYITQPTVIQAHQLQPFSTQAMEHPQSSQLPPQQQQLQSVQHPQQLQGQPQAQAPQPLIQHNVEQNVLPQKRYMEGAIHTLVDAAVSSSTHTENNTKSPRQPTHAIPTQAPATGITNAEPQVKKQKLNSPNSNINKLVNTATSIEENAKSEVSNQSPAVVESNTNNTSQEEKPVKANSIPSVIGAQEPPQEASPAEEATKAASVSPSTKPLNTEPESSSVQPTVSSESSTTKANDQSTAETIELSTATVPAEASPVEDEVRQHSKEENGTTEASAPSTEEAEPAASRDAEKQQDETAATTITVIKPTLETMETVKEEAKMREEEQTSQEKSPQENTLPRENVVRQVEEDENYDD
T5 sequence (P23572 whole entry, the tested form may be a part): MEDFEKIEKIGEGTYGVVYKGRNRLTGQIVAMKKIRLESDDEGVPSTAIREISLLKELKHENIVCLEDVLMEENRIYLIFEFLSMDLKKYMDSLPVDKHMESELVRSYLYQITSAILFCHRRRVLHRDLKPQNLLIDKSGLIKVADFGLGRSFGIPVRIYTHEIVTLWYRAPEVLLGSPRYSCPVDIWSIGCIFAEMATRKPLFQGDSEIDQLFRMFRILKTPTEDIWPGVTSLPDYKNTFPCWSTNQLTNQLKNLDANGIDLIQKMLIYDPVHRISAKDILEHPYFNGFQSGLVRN

## B1
[1]
  binding result: no binding
[2]
  binding result: no binding
[3]
  binding result: no binding
[4]
  binding result: no binding
[5]
  binding result: no binding
[6]
  binding result: no binding

## B2
[7]
  binding result: no binding

## B3
[8]
  binding result: no binding
